Molecular target: the molecule itself
Assay: native MS

B1: phospholipase D3 (PLD3) (enzyme)
chain: MKPKLMYQELKVPVEEPAGELPVNEIEAWKAAEKKARWVLLVLILAVVGFGALMTQLFLWEYGDLHLFGPNQRPAPCYDPCEAVLVESIPEGLEFPNATTSNPSTSQAWLGLLAGAHSSLDIASFYWTLTNNDTHTQEPSAQQGEEILQQLQALAPRGVKVRIAVSKPNGPLADLQSLLQSGAQVRMVDMQKLTHGVLHTKFWVVDQTHFYLGSANMDWRSLTQVKELGVVMYNCSCLARDLTKIFEAYWFLGQAGSSIPSTWPRPFDTRYNQETPMEICLNGTPALAYLASAPPPLCPSGRTPDLKALLSVVDSARSFIYIAVMNYLPTMEFSHPRRFWPAIDDGLRRAAYERGVKVRLLVSCWGHSEPSMRSFLLSLAALRDNHTHSDIQVKLFVVPADEAQARIPYARVNHNKYMVTERAVYIGTSNWSGSYFTETAGTSLLVTQNGHDGLRSQLEDVFLRDWNSLYSHNLDTAADSVGNACRLL
B1 was tested, and the “stoichiometry N” value was 2.
